Experimental findings from patent publication US20200231654A1 (published 2020) are described below.

For orientation: IC50 means the concentration that gives 50% inhibition.

The target in assay [1] is MMP-12 (catalytic domain) (human), (recombinant) (human, UniProt P39900 106-263). The assay is described as follows: enzyme inhibition.
For assay [2], the target named is Recombinant Human MMP-16/MT3-MMP Protein, CF (human, UniProt P51512 32-564). The assay is described as follows: enzyme inhibition.
Sequence of Recombinant Human MMP-16/MT3-MMP Protein, CF (P51512 32-564): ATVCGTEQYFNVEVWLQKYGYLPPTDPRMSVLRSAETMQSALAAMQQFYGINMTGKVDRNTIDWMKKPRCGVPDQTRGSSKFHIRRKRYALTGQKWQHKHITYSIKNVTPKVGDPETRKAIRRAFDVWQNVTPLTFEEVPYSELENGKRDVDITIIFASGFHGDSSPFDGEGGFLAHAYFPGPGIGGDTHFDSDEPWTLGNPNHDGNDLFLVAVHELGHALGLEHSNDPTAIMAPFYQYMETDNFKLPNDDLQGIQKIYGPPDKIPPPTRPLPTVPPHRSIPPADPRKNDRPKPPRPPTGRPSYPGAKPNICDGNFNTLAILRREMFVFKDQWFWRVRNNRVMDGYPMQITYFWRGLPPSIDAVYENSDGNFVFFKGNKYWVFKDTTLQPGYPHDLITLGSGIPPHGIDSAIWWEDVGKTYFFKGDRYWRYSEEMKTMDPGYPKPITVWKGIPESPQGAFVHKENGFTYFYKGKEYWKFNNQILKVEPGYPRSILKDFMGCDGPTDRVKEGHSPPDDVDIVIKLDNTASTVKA
Assay [3] deals with APMA-activated human MMP-13 enzyme active domain (human, UniProt P45452 104-274). Kind of assay: enzyme inhibition.
Assay [4] deals with MT2-MMP, Catalytic Domain, Human, Recombinant, E. coli (human, UniProt P51511 132-304). Kind of assay: enzyme inhibition.
Sequence of MT2-MMP, Catalytic Domain, Human, Recombinant, E. coli (P51511 132-304): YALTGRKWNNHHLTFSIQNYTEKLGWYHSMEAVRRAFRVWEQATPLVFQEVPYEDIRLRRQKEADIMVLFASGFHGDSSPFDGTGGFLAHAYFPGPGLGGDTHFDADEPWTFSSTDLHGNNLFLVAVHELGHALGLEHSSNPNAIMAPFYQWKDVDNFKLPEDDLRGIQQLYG
For assay [5], the target named is T1, MMP-2, active, Human, Recombinant, CHO Cells (human, UniProt P08253 110-660).
T1 chain: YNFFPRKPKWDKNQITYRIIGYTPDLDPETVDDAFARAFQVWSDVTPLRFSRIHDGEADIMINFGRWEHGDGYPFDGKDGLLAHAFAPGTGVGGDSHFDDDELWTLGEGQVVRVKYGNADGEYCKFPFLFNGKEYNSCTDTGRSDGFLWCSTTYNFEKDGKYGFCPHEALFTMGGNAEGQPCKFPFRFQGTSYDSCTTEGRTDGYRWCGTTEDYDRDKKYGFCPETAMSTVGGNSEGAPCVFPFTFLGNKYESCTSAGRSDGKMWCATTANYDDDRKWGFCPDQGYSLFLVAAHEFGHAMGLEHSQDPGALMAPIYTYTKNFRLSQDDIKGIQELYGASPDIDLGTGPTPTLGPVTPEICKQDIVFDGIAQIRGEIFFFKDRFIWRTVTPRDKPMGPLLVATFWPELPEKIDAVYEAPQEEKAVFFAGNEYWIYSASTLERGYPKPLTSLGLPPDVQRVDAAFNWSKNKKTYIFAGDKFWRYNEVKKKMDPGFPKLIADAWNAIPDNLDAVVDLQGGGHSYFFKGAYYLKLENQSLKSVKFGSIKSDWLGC
The assay is described as follows: enzyme inhibition.

Assay [6] has as its target T2, APMA-activated human MMP-1 enzyme active domain (human, UniProt P03956 100-269).
T2 chain: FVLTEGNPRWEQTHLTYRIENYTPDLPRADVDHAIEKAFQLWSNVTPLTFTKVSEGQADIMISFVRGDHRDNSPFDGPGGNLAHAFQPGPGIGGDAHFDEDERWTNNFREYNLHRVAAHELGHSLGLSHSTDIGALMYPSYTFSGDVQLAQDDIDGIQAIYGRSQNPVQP
The assay is described as follows: enzyme inhibition.

The target in assay [7] is MMP14 Recombinant Protein (human, UniProt P50281 112-287). Kind of assay: enzyme inhibition.
Assay [8] concerns the target T3, MMP-7 (catalytic domain) (human), (recombinant) (human, UniProt P09237 95-267).
T3 chain: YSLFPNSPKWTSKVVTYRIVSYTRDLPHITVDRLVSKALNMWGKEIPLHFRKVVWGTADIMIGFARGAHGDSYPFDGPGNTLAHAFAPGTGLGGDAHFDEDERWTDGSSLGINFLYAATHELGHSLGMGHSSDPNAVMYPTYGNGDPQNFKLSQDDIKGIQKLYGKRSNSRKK
Kind of assay: enzyme inhibition.

The target of assay [9] is APMA-activated human MMP-8 enzyme active domain (human, UniProt P22894 101-262). Kind of assay: enzyme inhibition.
Sequence of APMA-activated human MMP-8 enzyme active domain (P22894 101-262): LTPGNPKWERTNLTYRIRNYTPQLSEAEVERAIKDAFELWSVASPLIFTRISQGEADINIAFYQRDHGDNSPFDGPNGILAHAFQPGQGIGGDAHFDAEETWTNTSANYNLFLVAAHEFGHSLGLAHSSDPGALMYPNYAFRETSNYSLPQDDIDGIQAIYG
Assay [10] addresses T4, Recombinant Human MMP-17 Protein, CF (human, UniProt Q9ULZ9 36-565).
T4 chain: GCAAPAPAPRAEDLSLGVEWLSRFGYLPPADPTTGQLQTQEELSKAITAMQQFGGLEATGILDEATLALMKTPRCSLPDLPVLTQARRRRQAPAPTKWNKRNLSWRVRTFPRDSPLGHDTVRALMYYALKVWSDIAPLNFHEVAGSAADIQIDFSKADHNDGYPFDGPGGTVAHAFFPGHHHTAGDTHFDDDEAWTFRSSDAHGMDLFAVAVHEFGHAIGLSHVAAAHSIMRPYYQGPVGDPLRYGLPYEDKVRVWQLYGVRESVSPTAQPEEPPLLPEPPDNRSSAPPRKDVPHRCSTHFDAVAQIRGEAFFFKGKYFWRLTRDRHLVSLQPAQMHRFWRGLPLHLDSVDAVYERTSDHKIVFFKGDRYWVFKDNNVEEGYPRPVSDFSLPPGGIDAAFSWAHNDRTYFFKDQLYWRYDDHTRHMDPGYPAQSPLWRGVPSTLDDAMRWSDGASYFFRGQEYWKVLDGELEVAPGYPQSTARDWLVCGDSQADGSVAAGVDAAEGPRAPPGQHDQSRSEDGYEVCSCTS
Kind of assay: enzyme inhibition.

The target in assay [11] is T5, ADAM17 (catalytic domain) (human), (recombinant) (His-tag) (human, UniProt P78536 215-477).
T5 chain: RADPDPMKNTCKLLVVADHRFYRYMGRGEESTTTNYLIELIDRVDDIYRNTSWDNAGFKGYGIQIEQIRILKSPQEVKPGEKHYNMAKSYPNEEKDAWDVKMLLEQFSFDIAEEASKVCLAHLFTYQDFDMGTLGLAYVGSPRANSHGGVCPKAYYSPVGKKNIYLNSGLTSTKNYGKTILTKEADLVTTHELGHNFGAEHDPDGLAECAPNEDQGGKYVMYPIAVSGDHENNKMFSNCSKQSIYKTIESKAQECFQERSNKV
Kind of assay: enzyme inhibition.

A further assay concerns the target active hMMP-9(cat)_His6 (UniProt P14780 107-449). Kind of assay: enzyme inhibition; substrate gelatin.
A further assay deals with active hMMP-9(cat)_P193A (UniProt P14780 107-449). Kind of assay: substrate peptide degradation inhibition.
Sequence of active hMMP-9(cat)_P193A (P14780 107-449 P193A): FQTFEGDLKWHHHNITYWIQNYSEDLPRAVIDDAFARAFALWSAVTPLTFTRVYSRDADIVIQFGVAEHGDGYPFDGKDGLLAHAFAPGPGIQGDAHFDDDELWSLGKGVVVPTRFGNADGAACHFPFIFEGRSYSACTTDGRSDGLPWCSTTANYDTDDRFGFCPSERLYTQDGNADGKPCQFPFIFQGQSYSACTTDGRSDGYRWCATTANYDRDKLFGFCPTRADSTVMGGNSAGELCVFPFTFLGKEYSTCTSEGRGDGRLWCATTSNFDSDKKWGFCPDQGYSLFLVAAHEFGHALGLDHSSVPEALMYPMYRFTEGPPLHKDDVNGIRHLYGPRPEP
A further assay addresses active hMMP-9(cat)_Q199G (UniProt P14780 107-449). The assay is described as follows: substrate peptide degradation inhibition.
A further assay has as its target active hMMP-9(cat)_D185A (UniProt P14780 107-449). The assay is described as follows: substrate peptide degradation inhibition.

Sequence of MMP-12 (catalytic domain) (human), (recombinant) (P39900 106-263): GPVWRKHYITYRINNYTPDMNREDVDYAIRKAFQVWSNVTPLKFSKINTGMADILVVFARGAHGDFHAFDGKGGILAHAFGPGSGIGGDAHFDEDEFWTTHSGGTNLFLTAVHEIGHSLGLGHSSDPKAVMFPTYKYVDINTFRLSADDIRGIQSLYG
Sequence of active hMMP-9(cat)_D185A (P14780 107-449 D185A): as the sequence (P14780 107-449 P193A) above, with D79A, A87P counted along it
Sequence of active hMMP-9(cat)_Q199G (P14780 107-449 Q199G): as the sequence (P14780 107-449 P193A) above, with A87P, Q93G counted along it
Sequence of active hMMP-9(cat)_His6 (P14780 107-449): as the sequence (P14780 107-449 P193A) above, with A87P counted along it

B1: active MMP-9-binding peptide M91005 (designed binder)
chain: GSGMKETAAAKFERQHMDSPDLGTDDDDKAMADIGSANSDPQFGLFSKYRTPNCRKRGGPSCQMSYNPVCGSDMSTYANECTLCMKIREGGHNIKIIRNGPCGASAAA
As to B1, the IC50 in assay [1], in [2], in assay [3], in assay [4], in [5] and in assay [6] was over 1000 nM in each case. Moreover, the IC50 in [7] was over 1000 nM; in assay [8], over 1000 nM; in assay [9], over 1000 nM; in assay [10], over 1000 nM; in assay [11], over 1000 nM; with active hMMP-9(cat)_His6, 8.2 nM. Further, the figures for the IC50 in the assay with active hMMP-9(cat)_P193A, in the assay with active hMMP-9(cat)_Q199G and with active hMMP-9(cat)_D185A were 13 nM, 40 nM and 29 nM, respectively.
